# Results: patent US20220040297A1 (Chugai, published 2022)
# Changes are numbered by the printed parent chain. Names and notes keep the numbering of the source.
# T1: biotin-labeled human CD154 (human, UniProt P29965 113-261, limits assumed, biotin-labeled)
# T1 construct: also called biotinylated human CD154
# T1 sequence (looked up): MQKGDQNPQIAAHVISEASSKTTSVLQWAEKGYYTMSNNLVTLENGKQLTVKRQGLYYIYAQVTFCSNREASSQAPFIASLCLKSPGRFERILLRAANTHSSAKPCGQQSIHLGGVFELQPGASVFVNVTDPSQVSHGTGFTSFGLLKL
# B1: CE115HA000 T57N one-arm antibody (antibody, human IgG1, kappa, L234A L235A, N297A, name in Kabat numbering)
# heavy: QVQLVESGGGVVQPGRSLRLSCAASGFTFSNAWMHWVRQAPGKGLEWVAQIKAKSNNYANYYAESVKGRFTISRDDSKNSLYLQMNSLKTEDTAVYYCRYVHYGAYYGVDAWGQGTTVTVSSASTKGPSVFPLAPSSKSTSGGTAALGCLVKDYFPEPVTVSWNSGALTSGVHTFPAVLQSSGLYSLSSVVTVPSSSLGTQTYICNVNHKPSNTKVDKKVEPKSCDKTHTCPPCPAPEAAGGPSVFLFPPKPKDTLMISRTPEVTCVVVDVSHEDPEVKFNWYVDGVEVHNAKTKPREEQYASTYRVVSVLTVLHQDWLNGKEYKCKVSNKALPAPIEKTISKAKGQPREPQVYTLPPSRCELTKNQVSLSCAVKGFYPSDIAVEWESNGQPENNYKTTPPVLDSDGSFFLVSKLTVDKSRWQQGNVFSCSVMHEALHNHYTQKSLSLSPDYKDDDDK
# chain: EPKSSDKTHTCPPCPAPELLGGPSVFLFPPKPKDTLMISRTPEVTCVVVDVSHEDPEVKFNWYVDGVEVHNAKTKPREEQYNSTYRVVSVLTVLHQDWLNGKEYKCKVSNKALPAPIEKTISKAKGQPREPQVCTLPPSRDELTKNQVSLWCLVKGFYPSDIAVEWESNGQPENNYKTTPPVLDSDGSFFLYSKLTVDKSRWQQGNVFSCSVMHEALHNRYTQKSLSLSP
# light: DIVMTQSPLSLPVTPGEPASISCRSSQSLVHSNRNTYLHWYQQKPGQAPRLLIYKVSNRFSGVPDRFSGSGSGTDFTLKISRVEAEDVGVYYCGQGTQVPYTFGQGTKLEIKRTVAAPSVFIFPPSDEQLKSGTASVVCLLNNFYPREAKVQWKVDNALQSGNSQESVTEQDSKDSTYSLSSTLTLSKADYEKHKVYACEVTHQGLSSPVTKSFNRGEC
# B2: CE115HA000 S52cA one-arm antibody (antibody, human IgG1, kappa, L234A L235A, N297A, name in Kabat numbering)
# heavy: B1 heavy with S55A, N60T
# chain: B1 chain
# light: B1 light
# B3: CE115HA000 N76S one-arm antibody (antibody, human IgG1, kappa, L234A L235A, N297A, name in Kabat numbering)
# heavy: B1 heavy with N60T, N79S
# chain: B1 chain
# light: B1 light
# B4: CE115HA000 W33A one-arm antibody (antibody, human IgG1, kappa, L234A L235A, N297A, name in Kabat numbering)
# heavy: B1 heavy with W33A, N60T
# chain: B1 chain
# light: B1 light
# B5: CE115HA000 Y97D one-arm antibody (antibody, human IgG1, kappa, L234A L235A, N297A, name in Kabat numbering)
# heavy: B1 heavy with N60T, Y103D
# chain: B1 chain
# light: B1 light
# B6: CE115HA000 I51E one-arm antibody (antibody, human IgG1, kappa, L234A L235A, N297A, name in Kabat numbering)
# heavy: B1 heavy with I51E, N60T
# chain: B1 chain
# light: B1 light
# B7: CE115HA000 W33F one-arm antibody (antibody, human IgG1, kappa, L234A L235A, N297A, name in Kabat numbering)
# heavy: B1 heavy with W33F, N60T
# chain: B1 chain
# light: B1 light
# B8: CE115HA000 K52E one-arm antibody (antibody, human IgG1, kappa, L234A L235A, N297A, name in Kabat numbering)
# heavy: B1 heavy with K52E, N60T
# chain: B1 chain
# light: B1 light
# B9: CE115HA000 Y59A one-arm antibody (antibody, human IgG1, kappa, L234A L235A, N297A, name in Kabat numbering)
# heavy: B1 heavy with N60T, Y62A
# chain: B1 chain
# light: B1 light
# B10: 154R4B07#1 (antibody, human IgG1, kappa, L234A L235A, N297A)
# heavy: QVQLVESGGGLVQPGRSLRLSCAASGFTFSNAWMHWVRQAPGKGLEWVAQIKDRGNNYAAYYAESVKGRFTISRDDSKNSIYLQMNSLKTEDTAVYYCRYVHYGSYFFASFYFGVDIWGQGTTVTVSSASTKGPSVFPLAPSSKSTSGGTAALGCLVKDYFPEPVTVSWNSGALTSGVHTFPAVLQSSGLYSLSSVVTVPSSSLGTQTYICNVNHKPSNTKVDKKVEPKSCDKTHTCPPCPAPEAAGGPSVFLFPPKPKDTLMISRTPEVTCVVVDVSHEDPEVKFNWYVDGVEVHNAKTKPREEQYASTYRVVSVLTVLHQDWLNGKEYKCKVSNKALPAPIEKTISKAKGQPREPQVYTLPPSRCELTKNQVSLSCAVKGFYPSDIAVEWESNGQPENNYKTTPPVLDSDGSFFLVSKLTVDKSRWQQGNVFSCSVMHEALHNHYTQKSLSLSPDYKDDDDK
# chain: B1 chain
# light: B1 light
# notes: One-arm antibody
# B11: 154R3A01#4 (antibody, human IgG1, kappa, L234A L235A, N297A)
# heavy: QVQLVESGGGLVQPGRSLRLSCAASGFTFSNAWMHWVRQAPGKGLEWVAQIKDRVNQYANYYAECVKGRFTISRDDSKNSIYLQMNSLKTEDTAVYYCRYVHYGLTGYFSGQGGVDAWGQGTTVTVSSASTKGPSVFPLAPSSKSTSGGTAALGCLVKDYFPEPVTVSWNSGALTSGVHTFPAVLQSSGLYSLSSVVTVPSSSLGTQTYICNVNHKPSNTKVDKKVEPKSCDKTHTCPPCPAPEAAGGPSVFLFPPKPKDTLMISRTPEVTCVVVDVSHEDPEVKFNWYVDGVEVHNAKTKPREEQYASTYRVVSVLTVLHQDWLNGKEYKCKVSNKALPAPIEKTISKAKGQPREPQVYTLPPSRCELTKNQVSLSCAVKGFYPSDIAVEWESNGQPENNYKTTPPVLDSDGSFFLVSKLTVDKSRWQQGNVFSCSVMHEALHNHYTQKSLSLSPDYKDDDDK
# chain: B1 chain
# light: B1 light
# notes: One-arm antibody
# B12: 154R3B01#1 (antibody, human IgG1, kappa, L234A L235A, N297A)
# heavy: QVQLVESGGGLVQPGRSLRLSCAASGFTFSSAWMHWVRQAPGKGLEWVAQIKDKQNQYNAYYAESVKGRFTISRDDSKNSIYLQMNSLKTEDTAVYYCRYVHYATSDGFLPYFGVDAWGQGTTVTVSSASTKGPSVFPLAPSSKSTSGGTAALGCLVKDYFPEPVTVSWNSGALTSGVHTFPAVLQSSGLYSLSSVVTVPSSSLGTQTYICNVNHKPSNTKVDKKVEPKSCDKTHTCPPCPAPEAAGGPSVFLFPPKPKDTLMISRTPEVTCVVVDVSHEDPEVKFNWYVDGVEVHNAKTKPREEQYASTYRVVSVLTVLHQDWLNGKEYKCKVSNKALPAPIEKTISKAKGQPREPQVYTLPPSRCELTKNQVSLSCAVKGFYPSDIAVEWESNGQPENNYKTTPPVLDSDGSFFLVSKLTVDKSRWQQGNVFSCSVMHEALHNHYTQKSLSLSPDYKDDDDK
# chain: B1 chain
# light: B1 light
# notes: One-arm antibody
# B13: 154R3F02#2 (antibody, human IgG1, kappa, L234A L235A, N297A)
# heavy: QVQLVESGGGLVQPGRSLRLSCAASGFTFSNAWMHWVRQAPGKGLEWVAQIKDRASGYNNYYAESVKGRFTISRDDSKNSIYLQMNSLKTEDTAVYYCRYVHYAQSVSAFFQYGVDAWGQGTTVTVSSASTKGPSVFPLAPSSKSTSGGTAALGCLVKDYFPEPVTVSWNSGALTSGVHTFPAVLQSSGLYSLSSVVTVPSSSLGTQTYICNVNHKPSNTKVDKKVEPKSCDKTHTCPPCPAPEAAGGPSVFLFPPKPKDTLMISRTPEVTCVVVDVSHEDPEVKFNWYVDGVEVHNAKTKPREEQYASTYRVVSVLTVLHQDWLNGKEYKCKVSNKALPAPIEKTISKAKGQPREPQVYTLPPSRCELTKNQVSLSCAVKGFYPSDIAVEWESNGQPENNYKTTPPVLDSDGSFFLVSKLTVDKSRWQQGNVFSCSVMHEALHNHYTQKSLSLSPDYKDDDDK
# chain: B1 chain
# light: B1 light
# notes: One-arm antibody
# B14: 154R3A01#2 (antibody, human IgG1, kappa, L234A L235A, N297A)
# heavy: B11 heavy with C65S, F70L
# chain: B1 chain
# light: B1 light
# notes: One-arm antibody
# B15: 154R3A01#3 (antibody, human IgG1, kappa, L234A L235A, N297A)
# heavy: B11 heavy with T28A, C65S
# chain: B1 chain
# light: B1 light
# notes: One-arm antibody
# B16: 154R4F08#1 (antibody, human IgG1, kappa, L234A L235A, N297A)
# heavy: B10 heavy with R16H
# chain: B1 chain
# light: B1 light
# notes: One-arm antibody
# B17: 154R3A01#1 (antibody, human IgG1, kappa, L234A L235A, N297A)
# heavy: B11 heavy with C65S
# chain: B1 chain
# light: B1 light
# notes: One-arm antibody
# Target: CD3ε homodimer protein (human, UniProt P07766 23-126, limits assumed)
# Assay: SPR Biacore T200, CD3e homodimer on CM4 chip, antibody as analyte, 25 C
# Method: An appropriate amount of CD3ε homodimer protein was immobilized onto Sensor chip CM4 (GE Healthcare Japan Corp.) by the amine coupling method. Then, the antibody having an appropriate concentration was injected thereto as an analyte and allowed to interact with the CD3ε homodimer protein on the sensor chip. Then, the sensor chip was regenerated by the injection of 10 mmol/L glycine-HCl (pH 1.5). The assay was conducted at 25° C., and HBS-EP+ (GE Healthcare Japan Corp.) was used as a running buffer. […] Each parameter was calculated using Biacore T200 Evaluation Software (GE Healthcare Japan Corp.).
# Specifically, when the amount of the antibody comprising CE115HA000 bound was defined as X and the amount of the H chain one-amino acid altered form bound was defined as Y, a value of Z (ratio of amounts bound)=Y/X was used.
# Sequence of CD3ε homodimer protein (P07766 23-126 limits assumed): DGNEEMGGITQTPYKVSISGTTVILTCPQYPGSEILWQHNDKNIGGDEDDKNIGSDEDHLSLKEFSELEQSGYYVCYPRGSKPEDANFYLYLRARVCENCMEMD
row,KD ratio (KD of CE115HA000/KD of altered form),Binder
1,9.9,B1
2,0.67,B2
3,0.34,B3
4,23,B4
5,64.7,B5
6,0.84,B6
7,0.68,B7
8,19.8,B8
9,6.74,B9

# Target: T1, biotin-labeled human CD154
# Assay: ECL competition: biotinylated CD154, CD3ε homodimer as competitor [1]
# Method: Next, each obtained IgG was evaluated for its binding to CD3 and human CD154 at the same time by the competition method (electrochemiluminescence method (ECL method)).
# A TBST solution containing 0.5% BSA (referred to as a blocking solution; the TBST solution was TBS (manufactured by Takara Bio Inc.) supplemented with 0.1% Tween 20) was added at 150 μL/well to streptavidin plate (MSD K.K.), and the plate was incubated at room temperature for 1 hour or longer. After removal of the blocking solution, each well was washed three times with 250 μL of a TBST solution. The antibody-antigen complex solution was added thereto at 50 L/well, and the plate was incubated at room temperature for 1 hour so that the biotinylated antigen-antibody-detection sulfo-tag antibody complex solution bound via the biotinylated antigen to the streptavidin plate. After removal of the antibody-antigen complex solution, each well was washed three times with a TBST solution, and a solution of 4× READ buffer (MSD K.K.) diluted 2-fold with water was added thereto at 150 μL/well, followed by the detection of the luminescence signal of the sulfo-tag using Sector Imager 2400 (MSD K.K.).
row,"Relative ECL reaction (to no antigen coating), CD3ε[+]",Binder
1,1,B10
2,4,B11
3,18,B12
4,16,B13
5,4,B14
6,19,B15
7,1,B16
8,21,B17
